# B1: p45 Metalloprotease: metalloprotease purified from Fusarium oxysporum DSM 2672 broth, 45 kDa band; also produced recombinantly in A. oryzae (protein)
# chain: MRFSDSLLLIGLSSLAGAHPSRRAPNPSPLSKRGLDLEAFKLPPMAEYVPQDEVPDDVSAKVVTKRADYTETAKDLVKSTFPKATFRMVTDHYVGSNGIAHVNFKQTVNGIDIDNADFNVNIGADGEVFSYGNSFYEGKIPGPLTKRDEKDPVDALKDTVDVLSLPVEADKAKAEKKSKNHYTFTGTKGTVSKPEAKLTYLVDENKELKLTWRVETDIVDNWLLTYVNAAKTDEVVGVVDYVNEATYKVYPWGVNDPSKGSRSTVENPWNLAASEFTWLSDGSNNYTTTRGNNGIAQVNPSGGSTYLNNYRPDSPSLKFEYDYSTSTTTPTTYRDASIAQLFYTANKYHDLLYLLGFTEQAGNFQTNNNGQGGVGNDMVILNAQDGSGTNNANFATPADGQPGRMRMYLWTYSTPQRDCSFDAGVVIHEYTHGLSNRLTGGPANSGCLPGGESGGMGEGWGDFMATAIHIQSKDTRASNKVMGDWVYNNAAGIRAYPYSTSLTTNPYTYKSVNSLSGVHAIGTYWATVLYEVMWNLIDKHGKNDADEPKFNNGVPTDGKYLAMKLVVDGMSLQPCNPNMVQARDAIIDADTALTKGANKCEIWKGFAKRGLGTGAKYSASSRTESFALPSGC
# Key:
# [1] = tested on: pro-trypsin-like Fusarium oxysporum protease; assay: Proteolytic enzyme assay: tryptic activity released from pro-trypsin-like protease, L-BAPNA, 405 nm; type: biochemical
# Experimental: Metalloprotease activity is measured as released trypsin activity from pro-trypsin-like Fusarium oxysporum protease deposited at the Deutsche Sammlung von Mikroorganismen, Gottingen, Germany under the number DSM 2672, after a 30-60 min pre-incubation at 25° C. in 0.1M Tris, 2 mM CaCl2, pH 7 (at lower pH, 100 mM borate, 10 mM DMG, 2 mM CaCl2 is used).
# Metalloproteases contain a catalytic zinc metal center which participates in the hydrolysis of the peptide backbone. The active zinc center differentiates these proteases from calpains whose activities are dependent upon the presence of calcium. Confirmation of a protease as a metallo-protease is loss of proteolytic activity accomplished by removal of the zinc center with 1,10-phenanthroline (1 mM) followed by titration with Zn^2+ (0.1-100 μM) to restore full activity.
# However, when combined the metalloprotease cleaves recombinant pro-trypsin-like Fusarium oxysporum protease disclosed, supra to yield the active tryptic protease. Metalloprotease activity is halted upon the addition of 1 mM 1,10-phenanthroline (Table 1).
# FTC-labeled casein [2] = assay: Thermal stability profile, FTC-casein hydrolysis; type: biochemical; settings: 15 minutes at various temperatures, Universal buffer pH 7; FIG. 9
# Experimental: Purified p45 metalloprotease or B.t. thermolysin (Boehringer Mannheim) (50 microliters, 0.1 mg/ml) are incubated at various temperatures for 15-minutes in Universal buffer, pH 7. Ten microliters of sample are then added to 30 microliters of Universal pH buffer (pH 7) and 20 microliters of FTC-labeled casein and are incubated at 37° C. for 1 hour. 150 microliters of 5% TCA is added to acidify and precipitate casein (1 hour at room temperature). […] Samples are then analyzed on the fluorimeter (slit width=2.5 nm; excitation freq.=490 nm; emission freq.=525 nm; integration time=2 sec).
# FTC-labeled casein [3] = assay: pH profile, FTC-casein hydrolysis; type: biochemical
# Experimental: Purified p45 metalloprotease (10 microliters, 0.005 mg/ml) is added to 30 microliters of Universal pH buffer (pH 5-11.5), and 20 microliters of FTC-labeled casein are incubated at 37° C. for 1-hour. 150 microliters of 5% TCA is added to acidify and precipitate casein (1-hour at room temperature). […] Samples are then analyzed on the fluorimeter (slit width=2.5 nm; excitation freq.=490 nm; emission freq.=525 nm; integration time=2 sec).
# [4] = tested on: pro-trypsin-like F. oxysporum protease; assay: Second pH profile, pro-trypsin-like F. oxysporum protease assay; type: biochemical, Fusarium oxysporum; settings: 15 minutes, room temperature
# Experimental: A second pH profile is determined utilizing the pro-trypsin-like F. oxysporum protease assay whereby p45 metalloprotease activity is determined based on the processing of pro-trypsin-like F. oxysporum protease to active trypsin-like F. oxysporum protease Reaction mixtures contain 125 ug of purified pro-trypsin-like F. oxysporum protease and 0.13 ug of purified p45 metalloprotease (i.e. a molar ratio of pro-trypsin-likeF. oxysporum protease/ p45=1750:1) are added to "universal-buffer" solutions prepared at different pH's (i.e. pH values of 2.72, 4.11, 5.2, 6.05, 6.46, 6.98, 8.18, 9.02, 10.03, and 11.01) and the reaction mixtures are incubated for 15 minutes at room temperature. After incubation, 5 microliters are taken from each sample and added to microtiter wells containing 90 microliters of sample buffer (i.e. 0.1M borate, 2 mM CaCl2, and 10 mM DMG, pH 6.5), and 10 microliters of phosphoramidon (20 ug). […] Phosphoramidon is added to inhibit p45 activity and stop any further maturation of pro-trypsin-like F. oxysporum protease.
# [5] = tested on: pro-trypsin-like F. oxysporum protease; assay: p45 metalloprotease pH stability; type: biochemical, Fusarium oxysporum; settings: 20 minutes pre-incubation at room temperature
# Experimental: To determine the pH stability of the recombinant p45 metalloprotease, the partially-purified p45 metalloprotease is diluted 10-fold into universal buffers at pH's of 3.5,4,4.5, 5.2, 5.64, 6, 7, 8, 9, and 10 and pre-incubated at room temperature for 20 minutes. The pre-incubated samples (10 microliters) are added to 40 microliters of buffer containing 0.1M borate, 2 mM CaCl2, and 10 mM dimethylglutarate, pH 6.5 and 50 microliters of crude A. oryzae broth containing pro-trypsin-like F. oxysporum protease and subsequently incubated another 30 minutes.
# [6] = tested on: Ac-Pro-Leu-Gly[2-mercapto-4-methyl-pentanoyl]-Leu-Gly-OEt; assay: Hydrolysis of the thermolytic merc-peptide substrate (Ellman's reagent, 405 nm); type: biochemical
# Experimental: The thermolytic substrate Ac-Pro-Leu-Gly[2-mercapto-4-methyl-pentanoyl]-Leu-Gly-OEt (i.e. the merc-peptide) is also used to further characterize the p45 metalloprotease and B.t. thermolysin.
# Reaction mixtures contain 100 microliters of Ac-Pro-Leu-Gly[2-mercapto-4-methyl-pentanoyl]-Leu-Gly-OEt (1 mM, and 1 mM Ellman's reagent) and 100 microliters of either B.t. thermolysin or purified p45 metalloprotease (0-3 ug/ml) in sample buffer.
# [7] = tested on: FAGLA: N-(3-[2-Furyl]Acryloyl)-Gly-Leu amide; assay: FAGLA hydrolysis (345 nm); type: biochemical
# Experimental: The thermolytic substrate FAGLA: N-(3-[2-Furyl]Acryloyl)-Gly-Leu amide is used to further characterize the p45 metalloprotease and B.t. thermolysin. Reaction mixtures contain 100 microliters of N-(3-[2-Furyl]Acryloyl)-Gly-Leu amide (FAGLA) (2 mM) and 100 microliters of various concentrations of either thermolysin (Boehringer Mannheim) or purified p45 metalloprotease. Thermolytic activity is determined as a decrease in absorbance at 345 nm on the recording spectrometer for one minute(Shimadzu, UV160U). The linear range of the assay for thermolysin is 10-500 ug/ml thermolysin in the assay mix.
# FTC-labeled casein [8] = assay: Protease analysis using FTC-labeled casein; type: biochemical
# Experimental: Samples are incubated at room temperature for 30 minutes.
# [9] = tested on: succinyl-Ala-Ala-Ala-p-nitroanilide; assay: Hydrolysis of succinyl-Ala-Ala-Ala-p-nitroanilide; type: biochemical
# Source text: Both p45 metalloprotease and a neutral zinc endopeptidase secreted by Flavobacterium meningosepticum poorly hydrolyze the substrate N-[3-(2--furyl)acryloyl]-Leu-Gly-NH2. However, the neutral zinc endopeptidase secreted by Flavobacterium meningosepticum will hydrolyze the vertebrate elastase substrate succinyl-Ala-Ala-Ala-p-nitroanilide, a substrate that thermolysin cannot hydrolyze (Table 2). Therefore, succinyl-Ala-Ala-Ala-p-nitroanilide hydrolysis by the p45 metalloprotease is investigated. […] This effect further differentiates the p45 metalloprotease from other existing metalloproteases.
molecule,measurement,setting,value
B1,specific activity relative to the conventional Bacillus metalloprotease,"[1]; based on absorbance at 280 nm, preparative IEF fraction, FIG. 2",about 10 fold
same,tryptic activity of the sample alone,[1]; sample alone,do not contain any tryptic activity
same,Tryptic Activity,"[1]; without 1,10-phenanthroline, without Zn2+",1.33 Δ Abs/min × 10^-4
same,optimum temperature for hydrolysis of FTC-casein,FTC-labeled casein [2],50 °C
same,pH at which the protease functions optimally,FTC-labeled casein [3],~9.5
same,optimum pH for hydrolysis of FTC-casein,"FTC-labeled casein [3]; universal pH buffers pH 5-11.5, 37° C., 1 hour, FIG. 10",9.5
same,level of processed pro-trypsin-like protease at pH 6.5 relative to the level at pH 9,[4],approximately 24%
same,pH of maximum levels of processed pro-trypsin-like protease,[4]; molar ratio pro-trypsin/p45 1750:1,9.5
same,acceptable pH range (stability),[5],6.5-9
same,pH at which most stable,[5]; pH 3.5-10,8
same,"Specific Activity, substrate merc-peptide",[6],57 AU/min*mg
same,effectiveness at hydrolyzing the mercapto-peptide relative to B.s. thermolysin,[6],about 25 fold
same,"Specific Activity, substrate FAGLA",[7],0.76 -AU/sec*mg
same,"specific activity for FAGLA, times lower than that of thermolysin",[7],approximately 250 times
same,"Specific Activity, substrate FTC-Labelled Casein",FTC-labeled casein [8],170 FU/min*mg
same,FTC-casein hydrolysis relative to trypsin-like F. oxysporum protease,FTC-labeled casein [8]; on a molar basis at pH 9,approximately 16 fold
same,"Specific Activity, substrate Ala-Ala-Ala-pNA",[9],< 2 pmol pNA/min*mg
same,hydrolysis of succinyl-Ala-Ala-Ala-p-nitroanilide,"[9]; substrate 4.4 mM in 0.1M Tris, pH 8","neither, the p45 metalloprotease nor the B.s. thermolysin would hydrolyze"
